Experimental data published in patent US20120244161A1 (published 2012).

Target: T1, EpCAM on KatoIII cells (human, UniProt P16422 24-314)
T1 sequence (looked up): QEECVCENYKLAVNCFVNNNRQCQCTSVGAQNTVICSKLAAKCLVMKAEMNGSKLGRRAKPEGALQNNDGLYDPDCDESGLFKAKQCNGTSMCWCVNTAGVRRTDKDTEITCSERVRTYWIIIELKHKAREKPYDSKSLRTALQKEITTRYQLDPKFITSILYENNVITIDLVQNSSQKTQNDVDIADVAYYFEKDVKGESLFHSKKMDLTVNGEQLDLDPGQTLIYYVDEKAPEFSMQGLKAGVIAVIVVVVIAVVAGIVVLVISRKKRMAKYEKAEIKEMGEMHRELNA
Assay: cell-based or functional assay

EC50 of CD25 upregulation on CD4+ T lymphocytes, human PBMC with 0.2% KatoIII cells, 40 h, flow cytometry: 3.5 ng/mL
EC50 of CD25 upregulation on CD4+ T lymphocytes, human PBMC with 2% KatoIII cells, 40 h, flow cytometry: 2.35 ng/mL
EC50 of CD25 upregulation on CD4+ T lymphocytes, human PBMC with 10% KatoIII cells, 40 h, flow cytometry: 0.8 ng/mL
EC50 of CD25 upregulation on CD8+ T lymphocytes, human PBMC with 0.2% KatoIII cells, 40 h, flow cytometry: 5.98 ng/mL
EC50 of CD25 upregulation on CD8+ T lymphocytes, human PBMC with 2% KatoIII cells, 40 h, flow cytometry: 0.99 ng/mL
EC50 of CD25 upregulation on CD8+ T lymphocytes, human PBMC with 10% KatoIII cells, 40 h, flow cytometry: 0.26 ng/mL
B1: EpCAMxCD3 bispecific single chain antibody MT110 (bispecific antibody)
chain: ELVMTQSPSSLTVTAGEKVTMSCKSSQSLLNSGNQKNYLTWYQQKPGQPPKLLIYWASTRESGVPDRFTGSGSGTDFTLTISSVQAEDLAVYYCQNDYSYPLTFGAGTKLEIKGGGGSGGGGSGGGGSEVQLLEQSGAELVRPGTSVKISCKASGYAFTNYWLGWVKQRPGHGLEWIGDIFPGSGNIHYNEKFKGKATLTADKSSSTAYMQLSSLTFEDSAVYFCARLRNWDEPMDYWGQGTTVTVSSGGGGSDVQLVQSGAEVKKPGASVKVSCKASGYTFTRYTMHWVRQAPGQGLEWIGYINPSRGYTNYADSVKGRFTITTDKSTSTAYMELSSLRSEDTATYYCARYYDDHYCLDYWGQGTTVTVSSGEGTSTGSGGSGGSGGADDIVLTQSPATLSLSPGERATLSCRASQSVSYMNWYQQKPGKAPKRWIYDTSKVASGVPARFSGSGSGTDYSLTINSLEAEDAATYYCQQWSSNPLTFGGGTKVEIK
